Experimental data: patent US7867500B2, “Cofactor that modulates steroid receptor activities” (The United States of America as represented by the …, priority 2004, dated 2011)
One block for each molecule: values may come before it.

Columns and labels:
[1] = system: GR repression of an AP-1 induced gene; test: GR-mediated repression of PMA-induced AP-1/Luc reporter in U2OS.rGR cells; assay type: cell-based; details: for fold repression of PMA-induced AP-1 expression by Dex-bound GR: 25 μM PMA ± 0.1 μM Dex, TIF2 20 ng, STAMP 100 ng plasmid
Procedure: FIG. 5A-F illustrate STAMP modulation of GR-mediated repression. […] U2OS.rGR cells were transiently transfected with ±TIF2 (20 ng)±STAMP (100 ng) plasmids, AP-1/Luc reporter (20 ng), and Renilla control (10 ng) plasmid. The cells were induced with ethanol (EtOH) or 25 μM PMA±0.1 μM Dex. […] The average values±S.E.M. of four experiments are plotted. The numbers in parentheses above the bars labeled “PMA+Dex” represent the average fold repression caused by Dex± the various factors.
FIG. 5B illustrates that functional TIF2 is needed for optimal STAMP activity. U2OS.rGR cells were transiently transfected and processed as described for FIG. 5A but less STAMP (50 ng) was used and two concentrations of TIF2 or TIF2m123 (10 and 20 ng) were employed. The average values±S.E.M. of 4-5 experiments are plotted. An asterisk indicates a significant difference (P≦0.031) between samples containing equal amounts of TIF2 and TIF2m123.
Rogatsky et al. have reported that TIF2 augments GR repression of an AP-1 induced gene. […] The TIF2 domain identified as having TIF2 activity in GR repression was the same as used to isolate STAMP. In order to determine if STAMP was active in GR-mediated gene repression as well as induction, the ability of STAMP to increase the repressive activity of GR in the AP-1 responsive whole cell bioassay system was assessed using U2OS.rGR cells.

[2] = molecular target: T1, glucocorticoid receptor (GR) (Rattus norvegicus, UniProt P06536); test: GR-mediated induction of GREtkLUC reporter, transient transfection of CV-1 cells
T1 sequence (P06536 1-795): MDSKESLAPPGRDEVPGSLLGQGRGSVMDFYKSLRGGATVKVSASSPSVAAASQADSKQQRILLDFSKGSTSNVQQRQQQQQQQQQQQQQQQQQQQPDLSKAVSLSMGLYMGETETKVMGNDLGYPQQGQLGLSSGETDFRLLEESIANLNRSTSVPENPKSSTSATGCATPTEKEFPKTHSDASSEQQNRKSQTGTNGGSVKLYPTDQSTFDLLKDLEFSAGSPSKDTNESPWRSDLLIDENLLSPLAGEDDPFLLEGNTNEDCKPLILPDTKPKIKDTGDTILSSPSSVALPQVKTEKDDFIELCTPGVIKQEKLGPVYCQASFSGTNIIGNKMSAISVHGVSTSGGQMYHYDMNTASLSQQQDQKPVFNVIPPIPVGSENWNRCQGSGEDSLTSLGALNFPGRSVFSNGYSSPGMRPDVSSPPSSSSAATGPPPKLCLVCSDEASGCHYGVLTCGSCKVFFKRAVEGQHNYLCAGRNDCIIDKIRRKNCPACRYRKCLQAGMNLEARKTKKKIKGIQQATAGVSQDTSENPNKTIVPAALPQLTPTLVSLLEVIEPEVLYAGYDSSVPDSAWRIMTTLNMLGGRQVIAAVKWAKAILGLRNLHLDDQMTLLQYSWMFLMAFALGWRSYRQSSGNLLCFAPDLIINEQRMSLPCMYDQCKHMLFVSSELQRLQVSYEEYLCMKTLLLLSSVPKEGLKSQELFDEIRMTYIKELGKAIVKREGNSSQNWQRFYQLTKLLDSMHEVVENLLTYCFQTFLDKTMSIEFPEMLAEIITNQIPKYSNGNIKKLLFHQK
Procedure: Triplicate samples of CV-1 cells were transiently transfected with GR (6 ng)±TIF2 (20 ng)±STAMP (160 ng) plasmids, GREtkLUC reporter, and Renilla control plasmid. […] FIG. 4B illustrates the fold changes in GR induction parameters by STAMP and TIF2. […] The fold-increase in each parameter was determined as follows: for EC50s, fold increase=[EC50]GR/[EC50]GR+factor; for partial agonist activity and fold Dex induction, fold increase=activityGR+factor/activityGR). The average fold increases were then plotted±S.E.M (n=4).
CV-1 cells were transiently transfected with GR (6 ng)±TIF2 (20 ng)±STAMP (160 ng) plasmids, GREtkLUC reporter, and Renilla control plasmid, and induced with ethanol± the indicated concentrations of Dex.
Tests were run to determine whether exogenous STAMP can modulate the EC50 of glucocorticoids and the partial agonist activity of antiglucocorticoids in the transient transfection assays where GR induced gene expression from a GREtkLUC reporter.

GR = molecular target: T2, GR (Rattus norvegicus, UniProt P06536); test: Mammalian two-hybrid assay in CV-1 cells with VP16/GR; assay type: cell-based; details: VP16/GR ± 1 μM Dex
T2 construct: plus VP16 fused to the indicated full length receptors; expressed in transfected cells; host or cells: CV-1
T2 sequence (P06536 1-795): T1 sequence (P06536 1-795)
Excerpt: FIGS. 6A and 6B illustrate the domains of STAMP that interact with TIF2.4 (FIG. 6A) and GR (FIG. 6B) in the mammalian two-hybrid assay. […] These CV-1 cells were also transfected with GAL fused to the indicated segments of STAMP along with the FRLuc reporter and Renilla control plasmids. After determining the relative luciferase activities as described in FIG. 2B and 2C, the average values±S.E.M. from 2-5 experiments were plotted. The average fold increase for VP16/TIF2.4 with GAL/STAMP(623-834) in FIG. 6A was 11.0±3.0 (SEM, n=5) above the VP16 control. The values in parentheses above the data bars in FIG. 6B indicate the fold increased interaction ±1 μM Dex.
These assays were conducted as described (He et al., 2002). In particular, the recommended procedure for the Mammalian Matchmaker two-hybrid assay kit (Clontech) was modified slightly by changing from a chloramphenicol acetyltransferase reporter to a Luciferase Reporter pFRLuc (Stratagene), which is under the control of five repeats of the upstream activating sequence for the binding of GAL4.

[3] = in the presence of transfected GR and TIF2

effect on GR dose-response curve and induction parameters ([2]; TIF2 alone (FIG. 4A1)): similar, small effect
Molecule: TIF2: glucocorticoid receptor coactivator transcription intermediary factor-2
fold repression of PMA-induced AP-1 expression by Dex-bound GR [1]: about 9 fold
fold induction by PMA ([1]; 25 μM PMA, no Dex): unchanged

interaction with GR (GR): relative inactivity
B1: GAL/N834: STAMP fragment amino acids 1-834, TTL domain and CID region (protein)
chain: MARDLEETASSSEDEEVISQEDHPCIMWTGGCRRIPVLVFHADAILTKDNNIRVIGERYHLSYKIVRTDSRLVRSILTAHGFHEVHPSSTDYNLMWTGSHLKPFLLRTLSEAQKVNHFPRSYELTRKDRLYKNIIRMQHTHGFKVFHILPQTFLLPAEYAEFCNSYSKDRGPWIVKPVASSRGRGVYLINNPNQISLEENILVSRYINNPLLIDDFKFDVRLYVLVTSYDPLVIYLYEEGLARFATVRYDQGAKNIRNQFMHLTNYSVNKKSGDYVSCDDPEVEDYGNKWSMSAMLRYLKQEGRDTTALMAHVEDLIIKTIISAELAIATACKTFVPHRSSCFELYGFDVLIDSTLKPWLLEVNLSPSLACDAPLDLKIKASMISDMFTVVGFVCQDPAQRASTRPIYPTFESSRRNPFQKPQRCRPLSASDAEMKNLVGSAREKGPGKLGGSVLGLSMEEIKVLRRVKEENDRRGGFIRIFPTSETWEIYGSYLEHKTSMNYMLATRLFQDRMTADGAPELKIESLNSKAKLHAALYERKLLSLEVRKRRRRSSRLRAMRPKYPVITQPAEMNVKTETESEEEEEVALDNEDEEQEASQEESAGFLRENQAKYTPSLTALVENTPKENSMKVREWNNKGGHCCKLETQELEPKFNLMQILQDNGNLSKMQARIAFSAYLQHVQIRLMKDSGGQTFSASWAAKEDEQMELVVRFLKRASNNLQHSLRMVLPSRRLALLERRRILAHQLGDFIIVYNKETEQMAEKKSKKKVEEEEEDGVNMENFQEFIRQASEAELEEVLTFYTQKNKSASVFLGTHSKISKNNNNYSDSGAKG
modifications: GAL4 DBD fusion
notes: STAMP fragment amino acids 1-834, TTL domain and CID region

interaction with GR (GR): largest agonist-induced changes
B2: 956-1127: STAMP fragment amino acids 956 to 1127, portion of the RID region (protein)
chain: LPRCRSGSHTIGPFSSFQSAAHIYSQKLSRPSSAKAGSCYLNKHHSGIAKTQKEGEDASLYSKRYNQSMVTAELQRLAEKQAARQYSPSSHINLLTQQVTNLNLATGIINRSSASAPPTLRPIISPSGPTWSTQSDPQAPENHSSSPGSRSLQTGGFAWEGEVENNVYSQAT
modifications: GAL4 DBD fusion
notes: STAMP fragment amino acids 956 to 1127, portion of the RID region

interaction with GR (GR): largest agonist-induced changes
B5: 1127C: STAMP fragment amino acids 1127 to 1277, C-terminal part of the RID (protein)
chain: TGVVPQHKYHPTAGSYQLQFALQQLEQQKLQSRQLLDQSRARHQAIFGSQTLPNSNLWTMNNGAGCRISSATASGQKPTTLPQKVVPPPSSCASLVPKPPPNHEQVLRRATSQKASKGSSAEGQLNGLQSSLNPAASVPITSSTDPAHTKI
modifications: GAL4 DBD fusion
notes: STAMP fragment amino acids 1127 to 1277, C-terminal part of the RID

The remaining lines, values behind:

Molecule: C[C@@H]1C[C@H]2[C@@H]3CCC4=CC(=O)C=C[C@]4(C)[C@@]3(F)[C@@H](O)C[C@]2(C)[C@@]1(O)C(=O)CO [dexamethasone]
fold repression of PMA-induced AP-1 expression by Dex-bound GR [1]: about 5 fold

B3: STAMP(834-956): STAMP fragment amino acids 834-956, N-terminal portion of the RID (protein)
chain: GDHPETIMEEVKIKPPKQQQTTEIHSDKLSRFTTSAEKEAKLVYSNSSSGPTATLQKIPNTHLSSVTTSDLSPGPCHHSSLSQIPSAIPSMPHQPTILLNTVSASASPCLHPGAQNIPSPTGL
modifications: GAL4 DBD fusion
notes: STAMP fragment amino acids 834-956, N-terminal portion of the RID
interaction with GR (GR): substantial ligand-independent association

B4: STAMP623C: STAMP fragment amino acids 623 to 1277, CID and RID but no TTL domain (protein)
chain: ENTPKENSMKVREWNNKGGHCCKLETQELEPKFNLMQILQDNGNLSKMQARIAFSAYLQHVQIRLMKDSGGQTFSASWAAKEDEQMELVVRFLKRASNNLQHSLRMVLPSRRLALLERRRILAHQLGDFIIVYNKETEQMAEKKSKKKVEEEEEDGVNMENFQEFIRQASEAELEEVLTFYTQKNKSASVFLGTHSKISKNNNNYSDSGAKGDHPETIMEEVKIKPPKQQQTTEIHSDKLSRFTTSAEKEAKLVYSNSSSGPTATLQKIPNTHLSSVTTSDLSPGPCHHSSLSQIPSAIPSMPHQPTILLNTVSASASPCLHPGAQNIPSPTGLPRCRSGSHTIGPFSSFQSAAHIYSQKLSRPSSAKAGSCYLNKHHSGIAKTQKEGEDASLYSKRYNQSMVTAELQRLAEKQAARQYSPSSHINLLTQQVTNLNLATGIINRSSASAPPTLRPIISPSGPTWSTQSDPQAPENHSSSPGSRSLQTGGFAWEGEVENNVYSQATGVVPQHKYHPTAGSYQLQFALQQLEQQKLQSRQLLDQSRARHQAIFGSQTLPNSNLWTMNNGAGCRISSATASGQKPTTLPQKVVPPPSSCASLVPKPPPNHEQVLRRATSQKASKGSSAEGQLNGLQSSLNPAASVPITSSTDPAHTKI
ability to increase the partial agonist activity of Dex-Mes, retained [2, 3]: 40%
capacity of full length STAMP to increase the fold induction with Dex, retained [2, 3]: 85%
